In patent US10227388B2, “Peptides and combination of peptides for use in immunotherapy against non-small cell lung cancer and other cancers” (immatics biotechnologies GmbH, priority 2015, dated 2019):

Biological target: HLA-A*02:01 (Homo sapiens, UniProt P04439, D140Y/D185E/D98H/E176V/E277Q/G131W/G231S/I119V/I121R/I166T/I218V/L300P/L318F/N151K/N90K/P208A/P217A/Q86G/Q94H/R138H/R169H/T345S)
Test: MHC binding assay (UV-ligand exchange, ELISA, peptide exchange yield)
Details: binding of HLA-class I restricted peptides to HLA-A*02:01
Description: Candidate peptides for T cell based therapies according to the present invention were further tested for their MHC binding capacity (affinity). The individual peptide-MHC complexes were produced by UV-ligand exchange, where a UV-sensitive peptide is cleaved upon UV-irradiation, and exchanged with the peptide of interest as analyzed. Only peptide candidates that can effectively bind and stabilize the peptide-receptive MHC molecules prevent dissociation of the MHC complexes. To determine the yield of the exchange reaction, an ELISA was performed based on the detection of the light chain ([…]) of stabilized MHC complexes. The assay was performed as generally described in Rodenko et al. (Rodenko et al., 2006).
96 well MAXISorp plates (NUNC) were coated over night with 2-ug/ml streptavidin in PBS at room temperature, washed 4× and blocked for 1 h at 37° C. in 2% BSA containing blocking buffer. […] Peptide-MHC monomers of the UV-exchange reaction were diluted 100 fold in blocking buffer. Samples were incubated for 1 h at 37° C., washed four times, incubated with 2-ug/ml HRP conjugated anti-β2m for 1 h at 37° C., washed again and detected with TMB solution that is stopped with […]. Absorption was measured at 450 nm. Candidate peptides that show a high exchange yield (preferably higher than 50%, most preferred higher than 75%) are generally preferred for a generation and production of antibodies or fragments thereof, and/or T cell receptors or fragments thereof, as they show sufficient avidity to the MHC molecules and prevent dissociation of the MHC complexes.

Substance | Peptide exchange (MHC class I binding score, peptide exchange yield)
74 (ALLDPEVLSIFV; listed as Homo sapiens) [compound 74] | ″+++″ (≥50% = +++)
75 (GLLEVMVNL; listed as Homo sapiens) [compound 75] | ″+++″ (≥50% = +++)
76 (ILIDSIYKV; listed as Homo sapiens) [compound 76] | ″+++″ (≥50% = +++)
77 (ILVEADGAWVV; listed as Homo sapiens) [compound 77] | ″++++″ (≥75% = ++++)
78 (SLFSSLEPQIQPV; listed as Homo sapiens) [compound 78] | ″+++″ (≥50% = +++)
80 (FLYDNLVESL; listed as Homo sapiens) [compound 80] | ″++″ (≥20% = ++)
81 (FLFSQLQYL; listed as Homo sapiens) [compound 81] | ″++″ (≥20% = ++)
82 (FLSSVTYNL; listed as Homo sapiens) [compound 82] | ″+++″ (≥50% = +++)
83 (ILAPTVMMI; listed as Homo sapiens) [compound 83] | ″+++″ (≥50% = +++)
84 (VTFGEKLLGV; listed as Homo sapiens) [compound 84] | ″++″ (≥20% = ++)
85 (KMSELRVTL; listed as Homo sapiens) [compound 85] | ″+++″ (≥50% = +++)
86 (NLIGKIENV; listed as Homo sapiens) [compound 86] | ″+++″ (≥50% = +++)
87 (ALPEAPAPLLPHIT; listed as Homo sapiens) [compound 87] | ″++″ (≥20% = ++)
88 (FLLVGDLMAV; listed as Homo sapiens) [compound 88] | ″+++″ (≥50% = +++)
89 (YILPTETIYV; listed as Homo sapiens) [compound 89] | ″++++″ (≥75% = ++++)
90 (TLLQIIETV; listed as Homo sapiens) [compound 90] | ″+++″ (≥50% = +++)
91 (IMQDFPAEIFL; listed as Homo sapiens) [compound 91] | ″++++″ (≥75% = ++++)
92 (YLIPFTGIVGL; listed as Homo sapiens) [compound 92] | ″++″ (≥20% = ++)
93 (LLQAIKLYL; listed as Homo sapiens) [compound 93] | ″++″ (≥20% = ++)
94 (YLIDIKTIAI; listed as Homo sapiens) [compound 94] | ″++″ (≥20% = ++)
95 (SVIPQIQKV; listed as Homo sapiens) [compound 95] | ″+++″ (≥50% = +++)
96 (YIFTDNPAAV; listed as Homo sapiens) [compound 96] | ″+++″ (≥50% = +++)
97 (SLINGSFLV; listed as Homo sapiens) [compound 97] | ″+++″ (≥50% = +++)
98 (LIIDQADIYL; listed as Homo sapiens) [compound 98] | ″+++″ (≥50% = +++)
99 (ALVSKGLATV; listed as Homo sapiens) [compound 99] | ″++″ (≥20% = ++)
100 (YLLSTNAQL; listed as Homo sapiens) [compound 100] | ″++++″ (≥75% = ++++)
101 (ILVGGGALATV; listed as Homo sapiens) [compound 101] | ″+++″ (≥50% = +++)
102 (YLFESEGLVL; listed as Homo sapiens) [compound 102] | ″+++″ (≥50% = +++)
